Test results as given in PMC5398727, “GP73 represses host innate immune response to promote virus replication by facilitating MAVS and TRAF6 degradation” (PLoS Pathogens, 2017).

Molecular target: T1, GST-GP73 (aa36-401) (human, UniProt Q8NBJ4 36-401)
T1 construct: also called recombinant GST-GP73; GST-fused GP73; source: E. coli BL21, purified (glutathione Sepharose 4B)
T1 sequence (looked up): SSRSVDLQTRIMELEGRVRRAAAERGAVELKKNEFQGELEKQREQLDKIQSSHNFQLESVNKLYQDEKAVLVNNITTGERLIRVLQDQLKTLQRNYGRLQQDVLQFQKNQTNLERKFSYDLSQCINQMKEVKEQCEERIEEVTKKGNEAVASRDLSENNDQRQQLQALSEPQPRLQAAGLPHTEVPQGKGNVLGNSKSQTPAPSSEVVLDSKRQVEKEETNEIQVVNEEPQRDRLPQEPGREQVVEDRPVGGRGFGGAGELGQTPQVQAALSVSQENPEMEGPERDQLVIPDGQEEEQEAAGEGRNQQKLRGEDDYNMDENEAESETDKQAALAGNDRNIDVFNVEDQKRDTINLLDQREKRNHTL
Assay: pull-down; purified MBP, MBP-M11 or MBP-T6CC (20 μg) with 10 μg GST or 20 μg GST-GP73 overnight at 4°C; WB (S4A Fig)
Conditions: both partners purified

B1: MBP-M11 (domain or fragment, UniProt Q7Z434 1-90, looked up)
chain: MPFAEDKTYKYICRNFSNFCNVDVVEILPYLPCLTARDQDRLRATCTLSGNRDTLWHLFNTLQRRPGWVEYFIAALRGCELVDLADEVASISASTSLGMGPCHGPEENEYKSEGTFGIHVAENPSIQLLEGNPGPPADPDGGPRPQADRKFQEREVPCHRPSPGALWLQVAVTGVLVVTLLVVLYRRRLH
notes: also called MBP-fused M11; source: E. coli BL21, purified (amylose resin)
binding result: binds
